Ends that are not written are not given here.
What was measured:
Test in all cases: pepscan: 15-mer peptide on OVA-microspheres, biotinylated BC2-Nb, streptavidin-PE
β-catenin peptide 57-71 = target: T1, β-catenin peptide 57-71 (human, UniProt P35222)
T1 construct: synthetic 15-mer; additional N-terminal cysteine for coupling; also called Start 57 End 71
T1 peptide (looked up): VDTSQVLYEWEQGFS
Description: (§1) As negative controls, microspheres comprising Ovalbumin and the Myc-peptide ([…]) covalently coupled to OVA-microspheres were used. […] Evaluation of the PE-signals were done in a Flexmap 3D (Luminex).

AMEPDRKAAVSHWQQ = target: T2, AMEPDRKAAVSHWQQ (also: coupled via added N-terminal Cys to OVA-microspheres)
T2 construct: also called β-catenin peptide Start 13 End 27
T2 peptide: CAMEPDRKAAVSHWQQ
Description: as §1

[1] = target: T3, β-catenin peptide 113-127 (human, UniProt P35222)
T3 construct: synthetic 15-mer; additional N-terminal cysteine for coupling; also called Start 113 End 127
T3 peptide (looked up): QFDAAHPTNVQRLAE
Description: as §1

β-catenin peptide 37-51 = target: T4, β-catenin peptide 37-51 (human, UniProt P35222)
T4 construct: synthetic 15-mer; additional N-terminal cysteine for coupling; also called Start 37 End 51
T4 peptide (looked up): SGATTTAPSLSGKGN
Description: as §1

β-catenin peptide 93-107 = target: T5, β-catenin peptide 93-107 (human, UniProt P35222)
T5 construct: synthetic 15-mer; additional N-terminal cysteine for coupling; also called Start 93 End 107
T5 peptide (looked up): RVRAAMFPETLDEGM
Description: as §1

β-catenin peptide 41-55 = target: T6, β-catenin peptide 41-55 (human, UniProt P35222)
T6 construct: synthetic 15-mer; additional N-terminal cysteine for coupling; also called Start 41 End 55
T6 peptide (looked up): TTAPSLSGKGNPEEE
Description: as §1

β-catenin peptide 5-19 = target: T7, β-catenin peptide 5-19 (human, UniProt P35222)
T7 construct: synthetic 15-mer; additional N-terminal cysteine for coupling; also called Start 5 End 19
T7 peptide (looked up): ADLMELDMAMEPDRK
Description: as §1

[2] = target: T8, β-catenin peptide 105-119 (human, UniProt P35222)
T8 construct: synthetic 15-mer; additional N-terminal cysteine for coupling
T8 peptide (looked up): EGMQIPSTQFDAAHP
Description: as §1

β-catenin peptide 89-103 = target: T9, β-catenin peptide 89-103 (human, UniProt P35222)
T9 construct: synthetic 15-mer; additional N-terminal cysteine for coupling; also called Start 89 End 103
T9 peptide (looked up): TRAQRVRAAMFPETL
Description: as §1

β-catenin peptide 69-83 = target: T10, β-catenin peptide 69-83 (human, UniProt P35222)
T10 construct: synthetic 15-mer; additional N-terminal cysteine for coupling; also called Start 69 End 83
T10 peptide (looked up): GFSQSFTQEQVADID
Description: as §1

β-catenin peptide 97-111 = target: T11, β-catenin peptide 97-111 (human, UniProt P35222)
T11 construct: synthetic 15-mer; additional N-terminal cysteine for coupling; also called Start 97 End 111
T11 peptide (looked up): AMFPETLDEGMQIPS
Description: as §1

β-catenin peptide 9-23 = target: T12, β-catenin peptide 9-23 (human, UniProt P35222)
T12 construct: synthetic 15-mer; additional N-terminal cysteine for coupling; also called Start 9 End 23
T12 peptide (looked up): ELDMAMEPDRKAAVS
Description: as §1

β-catenin peptide 25-39 = target: T13, β-catenin peptide 25-39 (human, UniProt P35222)
T13 construct: synthetic 15-mer; additional N-terminal cysteine for coupling; also called Start 25 End 39
T13 peptide (looked up): WQQQSYLDSGIHSGA
Description: as §1

β-catenin peptide 61-75 = target: T14, β-catenin peptide 61-75 (human, UniProt P35222)
T14 construct: synthetic 15-mer; additional N-terminal cysteine for coupling; also called Start 61 End 75
T14 peptide (looked up): QVLYEWEQGFSQSFT
Description: as §1

β-catenin peptide 21-35 = target: T15, β-catenin peptide 21-35 (human, UniProt P35222)
T15 construct: synthetic 15-mer; additional N-terminal cysteine for coupling; also called Start 21 End 35
T15 peptide (looked up): AVSHWQQQSYLDSGI
Description: as §1

β-catenin peptide 65-79 = target: T16, β-catenin peptide 65-79 (human, UniProt P35222)
T16 construct: synthetic 15-mer; additional N-terminal cysteine for coupling; also called Start 65 End 79
T16 peptide (looked up): EWEQGFSQSFTQEQV
Description: as §1

β-catenin peptide 45-59 = target: T17, β-catenin peptide 45-59 (human, UniProt P35222)
T17 construct: synthetic 15-mer; additional N-terminal cysteine for coupling; also called Start 45 End 59
T17 peptide (looked up): SLSGKGNPEEEDVDT
Description: as §1

β-catenin peptide 49-63 = target: T18, β-catenin peptide 49-63 (human, UniProt P35222)
T18 construct: synthetic 15-mer; additional N-terminal cysteine for coupling; also called Start 49 End 63
T18 peptide (looked up): KGNPEEEDVDTSQVL
Description: as §1

β-catenin peptide 85-99 = target: T19, β-catenin peptide 85-99 (human, UniProt P35222)
T19 construct: synthetic 15-mer; additional N-terminal cysteine for coupling; also called Start 85 End 99
T19 peptide (looked up): QYAMTRAQRVRAAMF
Description: as §1

β-catenin peptide 77-91 = target: T20, β-catenin peptide 77-91 (human, UniProt P35222)
T20 construct: synthetic 15-mer; additional N-terminal cysteine for coupling; also called Start 77 End 91
T20 peptide (looked up): EQVADIDGQYAMTRA
Description: as §1

B1: BC2 nanobody (VHH)
VHH: QVQLVESGGGLVQPGGSLTLSCTASGFTLDHYDIGWFRQAPGKEREGVSCINNSDDDTYYADSVKGRFTIFMDNAKDTVYLQMNSLKPEDTAIYYCAEARGCKRGRYEYDFWGQGTQVTVSS
notes: Alpaca VHH, 122 aa; also called BC2-Nb; BC2 nanotrap (BC2-Nb immobilized on agarose/Sepharose beads); not shown: C-terminal 6xHis-tag added by the pHEN6 vector
binding result (β-catenin peptide 57-71): no binding (tested: 1 µg/ml BC2-Nb)
binding result (AMEPDRKAAVSHWQQ): binds
binding result [1]: no binding (tested: 1 µg/ml BC2-Nb)
binding result (β-catenin peptide 37-51): no binding (tested: 1 µg/ml BC2-Nb)
binding result (β-catenin peptide 93-107): no binding (tested: 1 µg/ml BC2-Nb)
binding result (β-catenin peptide 41-55): no binding (tested: 1 µg/ml BC2-Nb)
binding result (β-catenin peptide 5-19): no binding (tested: 1 µg/ml BC2-Nb)
binding result [2]: no binding (tested: 1 µg/ml BC2-Nb)
binding result (β-catenin peptide 89-103): no binding (tested: 1 µg/ml BC2-Nb)
binding result (β-catenin peptide 69-83): no binding (tested: 1 µg/ml BC2-Nb)
binding result (β-catenin peptide 97-111): no binding (tested: 1 µg/ml BC2-Nb)
binding result (β-catenin peptide 9-23): no binding (tested: 1 µg/ml BC2-Nb)
binding result (β-catenin peptide 25-39): no binding (tested: 1 µg/ml BC2-Nb)
binding result (β-catenin peptide 61-75): no binding (tested: 1 µg/ml BC2-Nb)
binding result (β-catenin peptide 21-35): no binding (tested: 1 µg/ml BC2-Nb)
binding result (β-catenin peptide 65-79): no binding (tested: 1 µg/ml BC2-Nb)
binding result (β-catenin peptide 45-59): no binding (tested: 1 µg/ml BC2-Nb)
binding result (β-catenin peptide 49-63): no binding (tested: 1 µg/ml BC2-Nb)
binding result (β-catenin peptide 85-99): no binding (tested: 1 µg/ml BC2-Nb)
binding result (β-catenin peptide 77-91): no binding (tested: 1 µg/ml BC2-Nb)

From patent US20170137467A1 (CHROMOTEK, published 2017)
